Laboratory results: patent publication US20150344570A1 (published 2015)

Target: T1, FcγRIIa R (human, UniProt P12318 34-217)
T1 construct: extracellular domain; also called FcgRIIa R type; 2aR
T1 sequence (looked up): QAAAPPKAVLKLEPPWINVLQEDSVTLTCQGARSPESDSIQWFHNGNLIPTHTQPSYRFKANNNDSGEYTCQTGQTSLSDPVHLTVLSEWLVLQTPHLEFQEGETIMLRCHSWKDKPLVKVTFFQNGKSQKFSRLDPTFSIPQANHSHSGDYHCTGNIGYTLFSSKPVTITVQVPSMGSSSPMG
Assay: SPR (Biacore), captured antibody, FcγR as analyte; relative binding activity

Row | Binder | He/Con_2aR
1 | GpH7-A5/GpH7-B3 variant G237_15Y/GpL16-k0 (antibody, human IgG1, kappa, also called He Ab G237_15Y) heavy 1: not shown heavy 2: not shown light: DIVMTQSPLSLPVTPGEPASISCQASESLVHSNRNTYLHWYLQKPGQSPQLLIYKVSNRFSGVPDRFSGSGSGTDFTLKISRVEAEDVGVYYCSQNTHVPPTFGQGTKVEIERTVAAPSVFIFPPSDEQLKSGTASVVCLLNNFYPREAKVQWKVDNALQSGNSQESVTEQDSKDSTYSLSSTLTLSKADYEKHKVYACEVTHQGLSSPVTKSFNRGEC | 129 % (GpH7-A5/GpH7-B3/GpL16-k0 = 100)
2 | GpH7-A5/GpH7-B3 variant G237_13S/GpL16-k0 (antibody, human IgG1, kappa, also called He Ab G237_13S) heavy 1: not shown heavy 2: not shown light: DIVMTQSPLSLPVTPGEPASISCQASESLVHSNRNTYLHWYLQKPGQSPQLLIYKVSNRFSGVPDRFSGSGSGTDFTLKISRVEAEDVGVYYCSQNTHVPPTFGQGTKVEIERTVAAPSVFIFPPSDEQLKSGTASVVCLLNNFYPREAKVQWKVDNALQSGNSQESVTEQDSKDSTYSLSSTLTLSKADYEKHKVYACEVTHQGLSSPVTKSFNRGEC | 121 % (GpH7-A5/GpH7-B3/GpL16-k0 = 100)
3 | GpH7-A5/GpH7-B3 variant G237_20W/GpL16-k0 (antibody, human IgG1, kappa, also called He Ab G237_20W) heavy 1: not shown heavy 2: not shown light: DIVMTQSPLSLPVTPGEPASISCQASESLVHSNRNTYLHWYLQKPGQSPQLLIYKVSNRFSGVPDRFSGSGSGTDFTLKISRVEAEDVGVYYCSQNTHVPPTFGQGTKVEIERTVAAPSVFIFPPSDEQLKSGTASVVCLLNNFYPREAKVQWKVDNALQSGNSQESVTEQDSKDSTYSLSSTLTLSKADYEKHKVYACEVTHQGLSSPVTKSFNRGEC | 138 % (GpH7-A5/GpH7-B3/GpL16-k0 = 100)
4 | GpH7-A5/GpH7-B3 variant H268_20W/GpL16-k0 (antibody, human IgG1, kappa, also called He Ab H268_20W) heavy 1: not shown heavy 2: not shown light: DIVMTQSPLSLPVTPGEPASISCQASESLVHSNRNTYLHWYLQKPGQSPQLLIYKVSNRFSGVPDRFSGSGSGTDFTLKISRVEAEDVGVYYCSQNTHVPPTFGQGTKVEIERTVAAPSVFIFPPSDEQLKSGTASVVCLLNNFYPREAKVQWKVDNALQSGNSQESVTEQDSKDSTYSLSSTLTLSKADYEKHKVYACEVTHQGLSSPVTKSFNRGEC | 113 % (GpH7-A5/GpH7-B3/GpL16-k0 = 100)
5 | GpH7-A5/GpH7-B3 variant E333_09D/GpL16-k0 (antibody, human IgG1, kappa, also called He Ab E333_09D) heavy 1: not shown heavy 2: not shown light: DIVMTQSPLSLPVTPGEPASISCQASESLVHSNRNTYLHWYLQKPGQSPQLLIYKVSNRFSGVPDRFSGSGSGTDFTLKISRVEAEDVGVYYCSQNTHVPPTFGQGTKVEIERTVAAPSVFIFPPSDEQLKSGTASVVCLLNNFYPREAKVQWKVDNALQSGNSQESVTEQDSKDSTYSLSSTLTLSKADYEKHKVYACEVTHQGLSSPVTKSFNRGEC | 103 % (GpH7-A5/GpH7-B3/GpL16-k0 = 100)
6 | GpH7-A5/GpH7-B3 variant G237_10E/GpL16-k0 (antibody, human IgG1, kappa, also called He Ab G237_10E) heavy 1: not shown heavy 2: not shown light: DIVMTQSPLSLPVTPGEPASISCQASESLVHSNRNTYLHWYLQKPGQSPQLLIYKVSNRFSGVPDRFSGSGSGTDFTLKISRVEAEDVGVYYCSQNTHVPPTFGQGTKVEIERTVAAPSVFIFPPSDEQLKSGTASVVCLLNNFYPREAKVQWKVDNALQSGNSQESVTEQDSKDSTYSLSSTLTLSKADYEKHKVYACEVTHQGLSSPVTKSFNRGEC | 116 % (GpH7-A5/GpH7-B3/GpL16-k0 = 100)
7 | GpH7-A5/GpH7-B3 variant G237_19Q/GpL16-k0 (antibody, human IgG1, kappa, also called He Ab G237_19Q) heavy 1: not shown heavy 2: not shown light: DIVMTQSPLSLPVTPGEPASISCQASESLVHSNRNTYLHWYLQKPGQSPQLLIYKVSNRFSGVPDRFSGSGSGTDFTLKISRVEAEDVGVYYCSQNTHVPPTFGQGTKVEIERTVAAPSVFIFPPSDEQLKSGTASVVCLLNNFYPREAKVQWKVDNALQSGNSQESVTEQDSKDSTYSLSSTLTLSKADYEKHKVYACEVTHQGLSSPVTKSFNRGEC | 121 % (GpH7-A5/GpH7-B3/GpL16-k0 = 100)
8 | GpH7-A5/GpH7-B3 variant G237_04F/GpL16-k0 (antibody, human IgG1, kappa, also called He Ab G237_04F) heavy 1: not shown heavy 2: not shown light: DIVMTQSPLSLPVTPGEPASISCQASESLVHSNRNTYLHWYLQKPGQSPQLLIYKVSNRFSGVPDRFSGSGSGTDFTLKISRVEAEDVGVYYCSQNTHVPPTFGQGTKVEIERTVAAPSVFIFPPSDEQLKSGTASVVCLLNNFYPREAKVQWKVDNALQSGNSQESVTEQDSKDSTYSLSSTLTLSKADYEKHKVYACEVTHQGLSSPVTKSFNRGEC | 126 % (GpH7-A5/GpH7-B3/GpL16-k0 = 100)
9 | GpH7-A5/GpH7-B3 variant H268_05P/GpL16-k0 (antibody, human IgG1, kappa, also called He Ab H268_05P) heavy 1: not shown heavy 2: not shown light: DIVMTQSPLSLPVTPGEPASISCQASESLVHSNRNTYLHWYLQKPGQSPQLLIYKVSNRFSGVPDRFSGSGSGTDFTLKISRVEAEDVGVYYCSQNTHVPPTFGQGTKVEIERTVAAPSVFIFPPSDEQLKSGTASVVCLLNNFYPREAKVQWKVDNALQSGNSQESVTEQDSKDSTYSLSSTLTLSKADYEKHKVYACEVTHQGLSSPVTKSFNRGEC | 106 % (GpH7-A5/GpH7-B3/GpL16-k0 = 100)
10 | GpH7-A5/GpH7-B3 variant H268_01G/GpL16-k0 (antibody, human IgG1, kappa, also called He Ab H268_01G) heavy 1: not shown heavy 2: not shown light: DIVMTQSPLSLPVTPGEPASISCQASESLVHSNRNTYLHWYLQKPGQSPQLLIYKVSNRFSGVPDRFSGSGSGTDFTLKISRVEAEDVGVYYCSQNTHVPPTFGQGTKVEIERTVAAPSVFIFPPSDEQLKSGTASVVCLLNNFYPREAKVQWKVDNALQSGNSQESVTEQDSKDSTYSLSSTLTLSKADYEKHKVYACEVTHQGLSSPVTKSFNRGEC | 124 % (GpH7-A5/GpH7-B3/GpL16-k0 = 100)
11 | GpH7-A5/GpH7-B3 variant H268_15Y/GpL16-k0 (antibody, human IgG1, kappa, also called He Ab H268_15Y) heavy 1: not shown heavy 2: not shown light: DIVMTQSPLSLPVTPGEPASISCQASESLVHSNRNTYLHWYLQKPGQSPQLLIYKVSNRFSGVPDRFSGSGSGTDFTLKISRVEAEDVGVYYCSQNTHVPPTFGQGTKVEIERTVAAPSVFIFPPSDEQLKSGTASVVCLLNNFYPREAKVQWKVDNALQSGNSQESVTEQDSKDSTYSLSSTLTLSKADYEKHKVYACEVTHQGLSSPVTKSFNRGEC | 110 % (GpH7-A5/GpH7-B3/GpL16-k0 = 100)
